Measured values reported in patent US20050113327.

System: Actin of lily pollen tubes

## Aspergillus niger B1 extracellular RNase (RNase B1)
  actin filaments distribution in lily pollen tubes (TRITC-phalloidin staining): in RNase-treated pollen tubes masses of actin were accumulated at the tip cell wall
  lily pollen tube length after 1.5 h in vitro (FIG. 31; control 0.26 mm): Both RNase B1 and IAc-RNase B1 exhibited a clear inhibitory effect on pollen tube growth
  lily pollen tube length after 2 h in vitro (control without RNase about 300 µm): reached only 160 µm in length

## RNase B1 boiled for 30 minutes
  lily pollen tube length after 2 h in vitro (control without RNase about 300 µm): Boiling or autoclaving the RNase yielded pollen tubes of 130 and 170 µm in length, respectively

## autoclaved RNase B1
  lily pollen tube length after 2 h in vitro (control without RNase about 300 µm): Boiling or autoclaving the RNase yielded pollen tubes of 130 and 170 µm in length, respectively

## iodoacetylated (IAc-) RNase B1
  lily pollen tube length after 1.5 h in vitro (FIG. 31; control 0.26 mm): IAc RNase B1 inhibits pollen tubes growth in a similar manner of non-modified RNase B1
